IC50 of inhibition of proliferation, MTT based cell viability assay, ARO cells and IC50 of inhibition of proliferation, MTT based cell viability assay, WRO cells data for one substance are collected here from patent US20120214165A1.

For this assay, the target named is Epithelial cell adhesion molecule (EpCAM) (human) (UniProt P16422). Description: cell-based or functional assay.
UniProt P16422, sequence (P16422 24-314 M115T limits assumed): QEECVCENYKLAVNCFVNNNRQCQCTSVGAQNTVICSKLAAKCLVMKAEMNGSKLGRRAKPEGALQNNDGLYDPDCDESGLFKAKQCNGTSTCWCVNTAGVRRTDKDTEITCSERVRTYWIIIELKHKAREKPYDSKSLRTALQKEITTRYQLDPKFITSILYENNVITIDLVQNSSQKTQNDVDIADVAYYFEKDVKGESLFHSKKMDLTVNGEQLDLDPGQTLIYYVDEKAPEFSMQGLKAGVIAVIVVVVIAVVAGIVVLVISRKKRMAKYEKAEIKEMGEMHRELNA

As for “VB4-845 immunotoxin (from UniProt P11439 277-633)”, the IC50 of inhibition of proliferation, MTT based cell viability assay, ARO cells came to 0.7 pM and the IC50 of inhibition of proliferation, MTT based cell viability assay, WRO cells is 1 pM.
